First the molecules themselves.
T1: CIN85-ABC (UniProt Q96B97 1-333)
T1 construct: also called CIN85_(1-333); wildtype-like CIN85-ABC construct
T1 sequence (looked up): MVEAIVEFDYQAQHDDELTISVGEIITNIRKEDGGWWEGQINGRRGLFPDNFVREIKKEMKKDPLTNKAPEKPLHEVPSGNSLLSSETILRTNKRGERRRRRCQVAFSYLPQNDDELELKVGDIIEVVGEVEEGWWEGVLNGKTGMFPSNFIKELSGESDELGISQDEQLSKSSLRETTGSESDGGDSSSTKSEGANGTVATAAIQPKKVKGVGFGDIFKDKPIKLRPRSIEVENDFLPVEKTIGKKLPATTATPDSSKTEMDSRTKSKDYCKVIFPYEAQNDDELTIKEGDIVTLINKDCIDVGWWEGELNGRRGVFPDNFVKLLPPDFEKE

B1: SLP65_(1-330) (domain or fragment, UniProt Q8WV28 1-330, looked up)
chain: MDKLNKITVPASQKLRQLQKMVHDIKNNEGGIMNKIKKLKVKAPPSVPRRDYASESPADEEEQWSDDFDSDYENPDEHSDSEMYVMPAEENADDSYEPPPVEQETRPVHPALPFARGEYIDNRSSQRHSPPFSKTLPSKPSWPSEKARLTSTLPALTALQKPQVPPKPKGLLEDEADYVVPVEDNDENYIHPTESSSPPPEKAPMVNRSTKPNSSTPASPPGTASGRNSGAWETKSPPPAAPSPLPRAGKKPTTPLKTTPVASQQNASSVCEEKPIPAERHRGSSHRQEAVQSPVFPPAQKQIHQKPIPLPRFTEGGNPTVDGPLPSFSS
notes: Src homology 2 domain-containing leukocyte protein of 65 kDa (SLP65, BLNK), shortened at the C-terminus, residues 1-330, lacks the C-terminal SH2 domain; also called Wildtype SLP65_(1-330); BLNK
B2: SLP65-3xPRM4 (domain or fragment)
chain: B1 chain with I276S, A278L, E279P, I308S
modifications: 1-330 is printed; the text says PRMs are six residues long. The swapped limits are assumed: PRM5 275-280 and PRM6 307-312, each replaced by PRM4 242-247. Partly Atto430LS-labelled for microscopy.
B3: CIN85-BBB (domain or fragment)
chain: RRRRRCQVAFSYLPQNDDELELKVGDIIEVVGEVEEGWWEGVLNGKTGMFPSNFIKELSGEMKKDPLTNKAPEKPLHEVPSGNSLLSSETILRTNKRGERRRRRCQVAFSYLPQNDDELELKVGDIIEVVGEVEEGWWEGVLNGKTGMFPSNFIKELSGESDELGISQDEQLSKSSLRETTGSESDGGDSSSTKSEGANGTVATAAIQPKKVKGVGFGDIFKDKPIKLRPRSIEVENDFLPVEKTIGKKLPATTATPDSSKTEMDSRTRRRRRCQVAFSYLPQNDDELELKVGDIIEVVGEVEEGWWEGVLNGKTGMFPSNFIKELSGDFEKE
B4: SLP65-R247A (domain or fragment, UniProt Q8WV28 1-330, looked up)
chain: B1 chain with R247A
notes: the C-terminally shortened version (1-330) was used for measurements

What all share (experiment): ITC; multivalent SLP65 constructs with multivalent CIN85 constructs (global KD); conditions in the SI Appendix
What all share (conditions): both partners purified
On the technique in general: ITC needs no label: the signal is the heat of the interaction.

For one experiment, the target named is T1, CIN85-ABC.
The experiment “CIN85-BBB” addresses B3.
For the experiment “SLP65_(1-330)”, the target named is B1.

Changes are numbered by the printed parent chain.

For B1, the Kd (in general, the equilibrium constant for the complex coming apart) with CIN85-ABC came out at 1360 ± 170 nM.

As for B2, the Kd in the experiment with CIN85-ABC is 240 ± 10 nM; in the experiment with CIN85-BBB, 140 ± 60 nM.

Take B3: the dissociation constant (Kd) with SLP65_(1-330) amounted to 700 ± 250 nM.

Consider B4, for which binding in the experiment with CIN85-ABC was put at a Kd of 7040 ± 1120 nM.
